One assay deals with T1, IAPP (Homo sapiens, UniProt P10997).
T1 construct: IAPP (37 AA) (catalog number LT110006) (amidated C-terminal and disulfide bridge between Cys2 and Cys7) was from LifeTein; purchased LifeTein (Hillsborough, NJ) LT110006
T1 sequence (P10997 34-70 limits assumed): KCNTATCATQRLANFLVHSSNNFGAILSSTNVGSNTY
As to the kind of experiment: IAPP aggregation assay (Thioflavin T fluorescence). It is filed as biochemical. Particulars: 50 mmol/L IAPP plus 50 mmol/L peptide; 37° C.; range of 90-130 min; three replicates. The source says:
Thioflavin T (ThT) was from MilliporeSigma (catalog number T3516; Rockville, MD). IAPP (37 AA) (catalog number LT110006) (amidated C-terminal and disulfide bridge between Cys2 and Cys7) was from LifeTein (Hillsborough, NJ), and C-peptide (catalog number AS-61127) was from AnaSpec (Fremont, CA). Cα-peptide was custom made (Genemed Synthesis, Inc., San Antonio, TX). Black 96-well microplates (chimney well) were from Greiner Bio-One (Frickenhausen, Germany). Soluble and monomeric IAPP was made according to published protocols (Stine et al., Methods Mol. Biol. 670:13-32, 2011; Tu et al., Biochemistry 54:666-676, 2015), and the AnaSpec Manual of SensoLyte Thioflavin T Aggregation Kit (catalog number AS-72214) was used for the IAPP aggregation assay, with final concentration of 1% DMSO and […] ThT in component A buffer. The buffer was used as blank and IAPP without inhibitors, and the final concentration of IAPP and C- and Cα-peptides was […] each in the inhibition assays. Amyloid kinetics were measured by increasing ThT fluorescent amyloid binding intensity (1ex 440 nm; 1em 485 nm; height 3 mm; flashes 12) for 36 cycles, 5 min per cycle, at 37° C. with 15 s of shaking (100 rpm) between the reads in the EnSpire Multimode Plate Reader (PerkinElmer, Inc., Waltham, MA).

The target of another assay is β-Amyloid (1-42) (Homo sapiens, UniProt P05067). As to the kind of experiment: β-Amyloid (1-42) fibrillation assay (ThT binding to amyloid). Type of assay: biochemical. Particulars: 50 μM β-Amyloid plus 50 μM peptide; time range of 60-240 min; three replicates. The protocol:
FIGS. 21A-21C show inhibition of β-Amyloid (1-42) fibrillation by C- (C-pep) and Cα-peptides (Cα-pep). […] FIG. 21B is a box-whisker plot on C- and Cα-pep inhibition of β-Amyloid fibrillation in time range of 60-240 min. […] Fluorescence intensity (F.I.) represents ThT binding to amyloid. AUC represents area under curve calculated by Trapezoid rule. Aβ(1-42) represents 50 μM β-Amyloid plus buffer, C-pep represents 50 μM β-Amyloid plus 50 μM C-pep, and Cα-pep represents 50 μM β-Amyloid plus 50 μM Cα-pep.
Thioflavin T (ThT) was from MilliporeSigma (catalog number T3516; Rockville, MD). IAPP (37 AA) (catalog number LT110006) (amidated C-terminal and disulfide bridge between Cys2 and Cys7) was from LifeTein (Hillsborough, NJ), and C-peptide (catalog number AS-61127) was from AnaSpec (Fremont, CA). Cα-peptide was custom made (Genemed Synthesis, Inc., San Antonio, TX). Black 96-well microplates (chimney well) were from Greiner Bio-One (Frickenhausen, Germany). […] Amyloid kinetics were measured by increasing ThT fluorescent amyloid binding intensity (1ex 440 nm; 1em 485 nm; height 3 mm; flashes 12) for 36 cycles, 5 min per cycle, at 37° C. with 15 s of shaking (100 rpm) between the reads in the EnSpire Multimode Plate Reader (PerkinElmer, Inc., Waltham, MA).

Sequence of β-Amyloid (1-42) (P05067 672-713 limits assumed): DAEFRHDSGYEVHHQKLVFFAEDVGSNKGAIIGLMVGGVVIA

Turning to “C-peptide: classical 31-AA human insulin C-peptide, AnaSpec catalog number AS-61127 (EAEDLQVGQVELGGGPGAGSLQPLALEGSLQ)”, in the assay with IAPP, the “inhibition of IAPP fibrillation (ThT fluorescence intensity, AUC)” value is “inhibition of IAPP fibrillation”. The “inhibition of β-Amyloid fibrillation (ThT fluorescence intensity, AUC)” value in the assay with β-Amyloid (1-42) was “not”.

Regarding “EAEDLQGSLQPLALEGSLQ (C-alpha peptide; listed as Homo sapiens) [Cα-peptide, human 19-AA insulin C-peptide variant encoded by INS3B isoform; custom made by Genemed Synthesis]”, the “inhibition of IAPP fibrillation (ThT fluorescence intensity, AUC)” value with IAPP was “inhibited IAPP fibrillation more efficiently than C-peptide”. Besides, in the assay with β-Amyloid (1-42), the “inhibition of β-Amyloid fibrillation (ThT fluorescence intensity, AUC)” value was “inhibits”.

For the origin of these results see US20240190937A1, “HUMAN INSULIN C-ALPHA-PEPTIDES AND METHODS OF USE” (The United States of America, as represented by the …, priority 2021, published 2024).
